{"source": "patent US20140179594A1", "about": "“STREPTOCOCCUS BACTERIOPHAGE LYSINS FOR TREATMENT OF GRAM POSITIVE BACTERIA IN COMPANION ANIMALS AND LIVESTOCK” (priority 2011, published 2014)", "molecules": {"B1": {"name": "ΔPlySs1: truncated PlySs1 lysin with N-terminal enzymatic and central binding domains, N-terminal 254 amino acids, SEQ ID NO:2 (protein, listed as Streptococcus suis)", "chain": "MTINLETSIRWMSDRVGKVSYSMDYRNGPNSYDCSSAVYYALMAGGAISAGWAVNTEYMHDWLIRNGYVLVAENKPFNAQRHDVCILGKRGYSSGAGGHVVIFVDNVNVIHCNYARNGISIDNYNQVHRGMYYYLYRPANQPSISNKSLDQLVKETLAGVHGNGDTRKASLGSQYEAVMAVINGKASASEKSDEELAREVLAGKHGAGEDRKRSLGPRYEPVQAKVNELLKAKEKPSETAKNEPQTVQFKEDGDL"}}, "experiment_in_all_cases": "ΔPlySs1 OD600 lysis, 1 hr", "format_in_all_cases": "cell-based", "key": {"[1]": {"tested_on": "S. equi 700400"}, "[2]": {"tested_on": "S. gordonii 10558"}, "[3]": {"tested_on": "S. pyogenes D471"}, "[4]": {"tested_on": "S. pyogenes A486"}, "[5]": {"tested_on": "S. dysgalactiae 21597"}, "[6]": {"tested_on": "Group E streptococci K131"}, "[7]": {"tested_on": "M. luteus 4698"}}, "data": [{"molecule": "B1", "values": [{"measurement": "1-hour treated/untreated OD600-ratio", "setting": "[1]; 6.5 μg/ml", "value": 0.48}, {"measurement": "1-hour treated/untreated OD600-ratio", "setting": "[1]; 13 μg/ml", "value": 0.25}, {"measurement": "1-hour treated/untreated OD600-ratio", "setting": "[1]; 30 μg/ml", "value": 0.15}, {"measurement": "1-hour treated/untreated OD600-ratio", "setting": "[1]; 65 μg/ml", "value": 0.07}, {"measurement": "1-hour treated/untreated OD600-ratio", "setting": "[1]; 130 μg/ml", "value": 0.09}, {"measurement": "1-hour treated/untreated OD600-ratio", "setting": "[2]; 6.5 μg/ml", "value": 0.76}, {"measurement": "1-hour treated/untreated OD600-ratio", "setting": "[2]; 13 μg/ml", "value": 0.32}, {"measurement": "1-hour treated/untreated OD600-ratio", "setting": "[2]; 30 μg/ml", "value": 0.19}, {"measurement": "1-hour treated/untreated OD600-ratio", "setting": "[2]; 65 μg/ml", "value": 0.09}, {"measurement": "1-hour treated/untreated OD600-ratio", "setting": "[2]; 130 μg/ml", "value": 0.06}, {"measurement": "1-hour treated/untreated OD600-ratio", "setting": "[3]; 6.5 μg/ml", "value": 0.39}, {"measurement": "1-hour treated/untreated OD600-ratio", "setting": "[3]; 13 μg/ml", "value": 0.27}, {"measurement": "1-hour treated/untreated OD600-ratio", "setting": "[3]; 30 μg/ml", "value": 0.17}, {"measurement": "1-hour treated/untreated OD600-ratio", "setting": "[3]; 65 μg/ml", "value": 0.13}, {"measurement": "1-hour treated/untreated OD600-ratio", "setting": "[3]; 130 μg/ml", "value": 0.09}, {"measurement": "1-hour treated/untreated OD600-ratio", "setting": "[4]; 6.5 μg/ml", "value": 0.12}, {"measurement": "1-hour treated/untreated OD600-ratio", "setting": "[4]; 13 μg/ml", "value": 0.13}, {"measurement": "1-hour treated/untreated OD600-ratio", "setting": "[4]; 30 μg/ml", "value": 0.13}, {"measurement": "1-hour treated/untreated OD600-ratio", "setting": "[4]; 65 μg/ml", "value": 0.11}, {"measurement": "1-hour treated/untreated OD600-ratio", "setting": "[4]; 130 μg/ml", "value": 0.10}, {"measurement": "1-hour treated/untreated OD600-ratio", "setting": "[5]; 6.5 μg/ml", "value": 0.26}, {"measurement": "1-hour treated/untreated OD600-ratio", "setting": "[5]; 13 μg/ml", "value": 0.18}, {"measurement": "1-hour treated/untreated OD600-ratio", "setting": "[5]; 30 μg/ml", "value": 0.12}, {"measurement": "1-hour treated/untreated OD600-ratio", "setting": "[5]; 65 μg/ml", "value": 0.10}, {"measurement": "1-hour treated/untreated OD600-ratio", "setting": "[5]; 130 μg/ml", "value": 0.09}, {"measurement": "1-hour treated/untreated OD600-ratio", "setting": "[6]; 6.5 μg/ml", "value": 0.69}, {"measurement": "1-hour treated/untreated OD600-ratio", "setting": "[6]; 13 μg/ml", "value": 0.50}, {"measurement": "1-hour treated/untreated OD600-ratio", "setting": "[6]; 30 μg/ml", "value": 0.33}, {"measurement": "1-hour treated/untreated OD600-ratio", "setting": "[6]; 65 μg/ml", "value": 0.22}, {"measurement": "1-hour treated/untreated OD600-ratio", "setting": "[6]; 130 μg/ml", "value": 0.15}, {"measurement": "1-hour treated/untreated OD600-ratio", "setting": "[7]; 6.5 μg/ml", "value": 0.84}, {"measurement": "1-hour treated/untreated OD600-ratio", "setting": "[7]; 13 μg/ml", "value": 0.90}, {"measurement": "1-hour treated/untreated OD600-ratio", "setting": "[7]; 30 μg/ml", "value": 0.83}, {"measurement": "1-hour treated/untreated OD600-ratio", "setting": "[7]; 65 μg/ml", "value": 0.87}, {"measurement": "1-hour treated/untreated OD600-ratio", "setting": "[7]; 130 μg/ml", "value": 0.82}]}]}
